Results reported in paper PMC3707907, “TdIF1 Recognizes a Specific DNA Sequence through Its Helix-Turn-Helix and AT-Hook Motifs to Regulate Gene Transcription”.

Key:
TdIF1 (His-tagged) [1] = biological target: T1, TdIF1 (His-tagged) (UniProt Q9H147 1-329); test: EMSA; EMSA: 10 mM Tris-HCl pH 7.5, 100 mM NaCl, 1 mM EDTA, 1 mM DTT, 5% glycerol, 5 pmol probe, 100 ng protein in 10 ul, temperature not stated; GST pull-out: elution in 50 mM Tris-HCl pH 7.4, 5 mM beta-mercaptoethanol, 0.25% Tween 20, 10% glycerol, 150-350 mM NaCl; conditions: protein: recombinant; tags: His; chain copies: 2; label: biotin
T1 sequence: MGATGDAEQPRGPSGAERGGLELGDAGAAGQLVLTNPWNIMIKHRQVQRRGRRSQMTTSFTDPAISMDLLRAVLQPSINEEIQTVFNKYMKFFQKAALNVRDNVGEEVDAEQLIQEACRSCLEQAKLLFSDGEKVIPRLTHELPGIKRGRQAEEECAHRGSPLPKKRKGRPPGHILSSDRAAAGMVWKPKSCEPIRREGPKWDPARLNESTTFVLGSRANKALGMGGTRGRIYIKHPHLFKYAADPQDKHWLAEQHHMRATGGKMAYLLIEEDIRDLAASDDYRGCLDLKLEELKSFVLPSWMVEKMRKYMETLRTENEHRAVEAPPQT

TdIF1 (His-tagged) [2] = biological target: T1, TdIF1 (His-tagged); test: competition; EMSA vs biotin-dsAT; 5, 15, 45 pmol; complex decreased; EMSA: 10 mM Tris-HCl pH 7.5, 100 mM NaCl, 1 mM EDTA, 1 mM DTT, 5% glycerol, 5 pmol probe, 100 ng protein in 10 ul, temperature not stated; GST pull-out: elution in 50 mM Tris-HCl pH 7.4, 5 mM beta-mercaptoethanol, 0.25% Tween 20, 10% glycerol, 150-350 mM NaCl; conditions: protein: recombinant; tags: His; chain copies: 2
TdIF1 (His-tagged) [3] = biological target: T1, TdIF1 (His-tagged); test: competition; EMSA vs biotin-dsAT; 5, 15, 45 pmol; slightly weaker than competitor I; EMSA: 10 mM Tris-HCl pH 7.5, 100 mM NaCl, 1 mM EDTA, 1 mM DTT, 5% glycerol, 5 pmol probe, 100 ng protein in 10 ul, temperature not stated; GST pull-out: elution in 50 mM Tris-HCl pH 7.4, 5 mM beta-mercaptoethanol, 0.25% Tween 20, 10% glycerol, 150-350 mM NaCl; conditions: protein: recombinant; tags: His; chain copies: 2

B1: biotin-dsAT probe (32-bp AT-rich dsDNA) (dsDNA)
DNA 1: CGGTATTAAAAATTACTGACAATATTAAATTAGATC
DNA 2: TAATTTAATATTGTCAGTAATTTTTAATACCG
B1: binds (TdIF1 (His-tagged) [1]).

B2: Competitor I (SELEX clone 10; AT-tract + GNTGCATG) (dsDNA)
DNA 1: CGCCAAATAAAAGTTGCATGGTCG
DNA 2: CGACCATGCAACTTTTATTTGGCG
B2: binds (TdIF1 (His-tagged) [2]).

B3: Competitor III (GNTGCATG only, AT-tract mutated) (dsDNA)
DNA 1: CGCCAAGCCTCAGTTGCATGGTCG
DNA 2: CGACCATGCAACTGAGGCTTGGCG
B3: binds (TdIF1 (His-tagged) [3]).
